Drawing on article PMC10088672 (2023), this text covers Kd and koff for two molecules.

The target of test [1] is T1, SARS-CoV-2 spike RBD, Wuhan-Hu-1 (SARS-CoV-2, UniProt P0DTC2 321-536). The test is described as follows: BLI. (In general: Biolayer interferometry detects binding as a change in optical thickness at a sensor tip.)
Test [2] has as its target T1, SARS-CoV-2 spike RBD, Wuhan-Hu-1. The test is described as follows: BLI. This is another data set of the same source.

B1: NCV2SG53 monoclonal antibody (human IgG) (antibody, V domains shown)
VH: QVQMVESGGGLVRPGGSLRLSCAASGFTFSDYYMSWIRQAPGKGLEWISYISSSGSSMNYADSVKGRFTISRDNAKNSLFLQMNSLRAEDTAVYYCAREFDLTKIIMVPPYWGQGTLVTVSS
VL: AIQLTQSPSSLSASVGDRVTITCRASQGISSYLAWYQQKPGKAPKVLIYAASTLQSGVPSRFSGSGSGTDFTLTISSLQPEDFATYYCQQLKSYPLTFGGGTKVEIT
For the molecule B1, in test [1], the dissociation constant (Kd) (commonly the constant that tells how readily two partners part at equilibrium) is 2.6 nM. Moreover, in test [2], the koff (commonly the first-order rate constant of dissociation) turned out to be 0.00022 s⁻¹.

B2: NCV2SG48 monoclonal antibody (human IgG) (antibody, V domains shown)
VH: EVQLVESGGGLIQPGGSLRLSCAASGFIVSRNYMNWVRQAPGKGLEWVALIYSGGSTFYADSVKGRFTISRDNSKNTLYLQMNSLRAEDTAVYYCARDLVVYGLDYWGQGTLVTVSS
VL: AIQLTQSPSSLSASVGDRVTITCRASQGISSHLAWYQQKPGKAPKLLIFAASTLQSGVPSRFSGSGSGTDFTLTISSLQPEDFATYYCQHLNSNPPITFGQGTRLEIK
In test [1], B2 gave a Kd of 2.5 nM. This molecule returned a dissociation rate constant (koff) in test [2] of 0.00015 s⁻¹.
